Experiments:
[1] = biological target: T1, Qui5 and holo-Qui18 coexpression product (complex) (Streptomyces griseovariabilis, UniProt G9JKM4); assay: Q-TOF-MS of amino acid loading onto holo-Qui18; assay type: biochemical; settings: covalent; thioester to 4'-phosphopantetheine of the PCP domain; 5 mM L-tryptophan, 5 mM ATP, 10 mM MgCl2, 2 mM DTT, pH 8.0, 27°C, 2 hr
T1 construct: full-length A-PCP didomain Qui18 (611 aa) and Qui5 (71 aa), both His6-tagged, coexpressed in E. coli BL21(DE3) with B. subtilis sfp; holo form 64,836 Da (4'-phosphopantetheine on PCP Ser); hetero-tetramer about 160 kD; with MbtH-like protein

[2] = biological target: A-PCP didomain NRPS protein Qui18 (Streptomyces griseovariabilis subsp. bandungensis subsp. nov) (UniProt G9JKM4); assay: SEC; copurified His6-tagged Qui5 and Qui18 from coexpression; peak at around 160 kD; fraction analysed by SDS-PAGE (data not shown); settings: scale: subunits of Qui5 with 2 subunits of Qui18
[3] = biological target: tryptophan 2,3-dioxygenase Qui17 (Streptomyces griseovariabilis subsp. bandungensis subsp. nov); assay: SEC; purified His-tagged Qui17; data not shown

**Q.** For N[C@@H](Cc1c[nH]c2ccccc12)C(=O)O [L-tryptophan], which “Q-TOF-MS of amino acid loading onto holo-Qui18” value [1] is on record?
**A.** Its value is “Qui18 recognized L-tryptophan as its substrate and its function depended on the association with Qui5”.

**Q.** Which stoichiometry N [2] does the source give for “MbtH-like protein Qui5 (natural protein)” here?
**A.** The stoichiometry N was 2.

**Q.** Which stoichiometry N [3] does the source give for “tryptophan 2,3-dioxygenase Qui17 (enzyme)” here?
**A.** Its stoichiometry N is 4.

From publication PMC3578932, “In Vitro Characterization of Echinomycin Biosynthesis: Formation and Hydroxylation of L-Tryptophanyl-S-Enzyme and Oxidation of (2S,3S) β-Hydroxytryptophan” (PLoS ONE, 2013)
